From article PMC6532394
Read-outs that look alike come from different tables or passages of the source.

Key:
Experiment in all cases: fluorescence anisotropy
MeCP2 (full-length) [1] = molecular target: T1, MeCP2 (full-length) (human, UniProt P51608 1-486)
MeCP2 (full-length) [2] = molecular target: T1, MeCP2 (full-length); remark: listed apart in the source
MeCP2 (full-length) [3] = molecular target: T1, MeCP2 (full-length); remark: listed apart in the source
MeCP2 (full-length) [4] = molecular target: T1, MeCP2 (full-length); remark: listed apart in the source
MeCP2 (full-length) [5] = molecular target: T1, MeCP2 (full-length); remark: listed apart in the source
MeCP2 (full-length) [6] = molecular target: T1, MeCP2 (full-length); remark: listed apart in the source
MeCP2 (full-length) [7] = molecular target: T1, MeCP2 (full-length); remark: listed apart in the source

T1 sequence (P51608 whole entry): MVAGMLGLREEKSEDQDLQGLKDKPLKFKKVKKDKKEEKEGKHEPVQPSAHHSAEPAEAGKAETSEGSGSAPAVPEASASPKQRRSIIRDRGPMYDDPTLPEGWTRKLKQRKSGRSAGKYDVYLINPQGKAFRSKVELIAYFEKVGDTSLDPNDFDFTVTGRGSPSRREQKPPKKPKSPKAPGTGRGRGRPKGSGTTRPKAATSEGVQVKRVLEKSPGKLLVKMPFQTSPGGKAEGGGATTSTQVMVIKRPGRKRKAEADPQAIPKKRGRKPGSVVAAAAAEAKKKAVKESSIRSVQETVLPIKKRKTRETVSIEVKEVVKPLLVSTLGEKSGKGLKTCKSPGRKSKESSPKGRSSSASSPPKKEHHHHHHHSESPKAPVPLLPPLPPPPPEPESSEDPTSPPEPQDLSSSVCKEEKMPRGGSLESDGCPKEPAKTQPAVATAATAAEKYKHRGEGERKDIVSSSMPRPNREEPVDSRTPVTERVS

B1: CpG 20 bp duplex (-/-) (dsDNA)
DNA 1: TCTGGAACGGAATTCTTCTA
DNA 2: TAGAAGAATTCCGTTCCAGA
modifications: none
Kd (MeCP2 (full-length) [1]): 6.3 ± 0.3 nM | Kd (MeCP2 (full-length) [2]): 155 ± 3.7 nM | Kd (MeCP2 (full-length) [3]): 56.5 ± 1.8 nM

B2: mCpG 20 bp duplex (m/m) (dsDNA)
DNA 1: TCTGGAACGGAATTCTTCTA
DNA 2: TAGAAGAATTCCGTTCCAGA
modifications: 5mC at CpG C of both strands (strand 1 C8, strand 2 C12)
Kd (MeCP2 (full-length) [4]): 28.3 ± 1.1 nM | Kd (MeCP2 (full-length) [5]): 80.3 ± 2.5 nM | Kd (MeCP2 (full-length) [6]): 36.5 ± 1.4 nM | Kd (MeCP2 (full-length) [7]): 5.2 ± 0.4 nM
